Reference: the supplement of paper PMC7125110
± gives the standard error. Variants at the floor of the assay were thinned out.

B1: glmS ribozyme (parent)
chain: AUAAAAGCGCCAGAACUACAGAAAUGUAGUUGACGAGGAGGAGGUUUAUCGAAUUUUCGGCGGAUGCCUCCAAA

Variants of: B1
Assay: self-cleavage kobs at 640 uM GlcN6P; higher = faster cleavage; RNA array
Details: with glucosamine-6-phosphate
Procedure, shortened: (§1)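 Glucosamine-6-phosphate in HEPES/KCl/Mg(OAc)2 buffer, at 40 μM to 10 mM, was flowed over barcoded ribozyme variants transcribed in situ by E. coli RNA polymerase on sequenced MiSeq chips. Tracking was through a hybridised Cy3 probe at 37 °C. kobs, kcat and KM came from exponential decay fits and weighted Michaelis–Menten fits of normalised per-tile medians.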

Variant	self-cleavage kobs at 640 uM GlcN6P [s⁻¹]
AUAAAAGCGCCAUAACUACAGAAAUGUAGUUGACGACGAGGAGGUUUAUCGAAUUCUCGGCGGAUGACUCUAAA	< 1e-05
AUAAAAGCGCCAUGACUACAGAAAUGUACUUGACGAGGAGGAGGUUUAACGAAUUUUCGGCGGAUGCCUCCAAA	< 1e-05
AUAAAAGCGCCAGCACUACAGAAAUGUAGUUGACGCGGAGGAGGUUUAUCUAAUUUUCGGAGUAUGUCUCCAAA	8.43e-05 ± 3.9e-05
AUAAAAGCGCCAUAACUACAGAAAUGUAGUCGACGAGGAGAAGGUUUAUCGAAUUUUCGGCGGAUGCCUCCAAA	< 1e-05
AUAAAAGCGCCAUUACUACAGAAAUGUAGUUGACCAGGAGGAGGUAUAUCUAAUUUUCGGCGGAAGCCUCCAAA	< 1e-05
AUAAAAGCGCCAUAACUACAGAAAUGUAGCUGACGAGGAGGAGGUUUAUCGAAUUUUCGGAGGAUGCCUCCAAA	< 1e-05
AUAAAAGCGCCAGCCCUACAGAAAUGUAGUUGACGAGGUUGAGGUUUACCGAAUUUUCGGCGGAUGCCUCCAAA	< 1e-05
AUAAAAGCGCCAUAGCUACAGAAAUGUAGUUGACGAGGAGGAGGUUUAUCCAAUUUUCGGCGGAUGCCUCCAAA	< 1e-05
AUAAAAGCGCCAUAACUACAGAAAUGUAGUUGACGAGGAGGAGGUUUAUCGAAUUUUCGGCGGUUGCCUGCAAA	< 1e-05
AUAAAAGCGCCAUAAUUACAGAAAUGUAGUUGCCGAGGAGGAGGUUUAUCGAAUUUUCGGCGGAUGCUUCCAAA	< 1e-05
AUAAAAGCGCCAUAACUACAGAAAUGUAGUCGACGAGGAGGAGGUUUAUCGAAUUUUCGGCAGAUGCCUCCAAA	< 1e-05
AUAAAAGCGCCAUAACUACAGAAAUGUAGUUGACGAGGAAGACGUUUACCGAAUUUUCGGCGGAUGCGUCCAAA	< 1e-05
AUAAAAGCGCCAUAACUACAGAAAUGUAUUUAACGAGGAGGAGGUUUAUCGAAUUUUCGGCGGAUGCCUCCAAA	0.000242 ± 7e-05
AUAAAAGCGCCAUAACUACAGAAAUGUAGUUGACGAUGAAGAGGUUUAUCGAAUUUUCGGCGGAUGCCGCCAAA	< 1e-05
AUAAAAGCGCCAUAACUACAGAAAUGUAGUGGACGAGGAGGAGGUUUGUCGUAUUUUCGGCGGAUGCCUCCAAA	< 1e-05
AUAAAAGCGCCAUAACUACAGAAAUGUAGAUGACGAGGAGGAGGUUUAUCGAGUUUUCGGCGGAUGCCUCCAAA	5.33e-05 ± 1.9e-05
AUAAAAGCGCCAUAAAUACAGAAAUGUAGUUGACGAGGGUGAGGUUUAUCGAAUUUUCGGCGGAUGCGUCCAAA	< 1e-05
AUAAAAGCGCCAUAACUACAGAAAUGUAGUUGACGAGGAUGAGGUUUAUCGAAUUUUCGGCGCAUGCCUCCAAA	< 1e-05
AUAAAAGCGCCAUAUCUACAGAAAUGUAGUUUACGAGGAGGAGGUUUAUCGAAUUUUCGGCCGAUGCAUCCAAA	7.42e-05 ± 3.5e-05
AUAAAAGCGCCAUAACUACAGAAAUGUAGUUGACGAGGAGGAGGUUUAUCGAAUUUUCGGCGGGGGCCUCCAAA	8.37e-05 ± 3e-05
AUAAAAGCGCCAUAAGUACAGAAAUGUAAUUGACGAGGGGGAGGUUUAUCGAAUUUUCGGCGGAUGCCUCCAAA	0.000103 ± 3.7e-05
AUAAAAGCGCCAUAAUUACAGAAAUGUAAUUGACGAGGAGGAGGUUUAUCGAAUUUUCGGCGGAUGCCUCCAAA	0.000601 ± 0.00017
AUAAAAGCGCCAUAUCUACAGAAAUGUAGUUGACGAGGAGGAGGUUUAUCGAAUUUUCGGCGGAUGCCUUCAAA	3.4e-05 ± 9.4e-06
AUAAAAGCGCCAUAACUACAGAAAUGUACUUGACGAGGAGGAGGUUUAUCGAAUUUUCGACGGAUGCCCUCAAA	< 1e-05
AUAAAAGCGCCAUAACUACAGAAAUGUAGUUGACGAGGAGGAGGUUUAUCGAAUUCUCGGCGGGUGCCUCCAAA	< 1e-05
AUAAAAGCGCCAUAACUACAGAAAUGUAGUUGACGAGGAGGAGGUUUAUGGAAUUUUCGGCGGAUGGCUCCAAA	0.000305 ± 0.00014

Variants of: B1
Assay: self-cleavage kobs at 2500 uM GlcN6P; higher = faster cleavage; RNA array
Details: with glucosamine-6-phosphate
Procedure, shortened: as §1

Variant	self-cleavage kobs at 2500 uM GlcN6P [s⁻¹]
AUAAAAGCGCCAGCACUACAGAAAUGUAGUUGACGCGGAGGAGGUUUAUCUAAUUUUCGGAGUAUGUCUCCAAA	5.16e-05 ± 1.9e-05
AUAAAAGCGCCAUAGCUACAGAAAUGUAGUUGACGAGGAGGAGGUUUAUCCAAUUUUCGGCGGAUGCCUCCAAA	< 1e-05
AUAAAAGCGCCAUAACUACAGAAAUGUAGUUGACGAUGAAGAGGUUUAUCGAAUUUUCGGCGGAUGCCGCCAAA	< 1e-05
AUAAAAGCGCCAUAAAUACAGAAAUGUAGUUGACGAGGGUGAGGUUUAUCGAAUUUUCGGCGGAUGCGUCCAAA	< 1e-05
AUAAAAGCGCCAUAACUACAGAAAUGUAGUUGACGAGGAUGAGGUUUAUCGAAUUUUCGGCGCAUGCCUCCAAA	< 1e-05
AUAAAAGCGCCAUAACUACAGAAAUGUAGUUGACGAGGAGGAGGUUUAUCGAAUUUUCGGCGGGGGCCUCCAAA	5.07e-05 ± 1.7e-05
AUAAAAGCGCCAUAAGUACAGAAAUGUAAUUGACGAGGGGGAGGUUUAUCGAAUUUUCGGCGGAUGCCUCCAAA	0.000286 ± 7.5e-05
AUAAAAGCGCCAUAUCUACAGAAAUGUAGUUGACGAGGAGGAGGUUUAUCGAAUUUUCGGCGGAUGCCUUCAAA	7.46e-05 ± 2.2e-05
AUAAAAGCGCCAUAACUACAGAAAUGUAGUUGACGAGGAGGAGGUUUAUGGAAUUUUCGGCGGAUGGCUCCAAA	7.52e-05 ± 1.5e-05

Variants of: B1
Assay: self-cleavage kobs at 10000 uM GlcN6P; higher = faster cleavage; RNA array
Details: with glucosamine-6-phosphate
Procedure, shortened: as §1

Variant	self-cleavage kobs at 10000 uM GlcN6P [s⁻¹]
AUAAAAGCGCCAUAACUACAGAAAUGUAGUUGACGAUGAAGAGGUUUAUCGAAUUUUCGGCGGAUGCCGCCAAA	< 1e-05
AUAAAAGCGCCAUAACUACAGAAAUGUAGAUGACGAGGAGGAGGUUUAUCGAGUUUUCGGCGGAUGCCUCCAAA	4.23e-05 ± 1.5e-05
AUAAAAGCGCCAUAUCUACAGAAAUGUAGUUGACGAGGAGGAGGUUUAUCGAAUUUUCGGCGGAUGCCUUCAAA	5.88e-05 ± 1.3e-05
